These results are taken from publication PMC6255772, “Enhanced anti-metastatic bioactivity of an IGF-TRAP re-engineered to improve physicochemical properties” (Scientific Reports, 2018).

One test addresses T1, recombinant human IGF-1 (Homo sapiens, UniProt P05019).
T1 construct: human insulin-like growth factor 1, recombinant; also called rhIGF-1; hIGF-1; source: bought: Sigma-Aldrich
The test can be described thus: SPR; Biacore T200, competition in solution: 5 nM hIGF-1 or hIGF-2 incubated 1 h with 0.12-500 nM IGF-TRAP, injected over about 4000 RU MEDI-573 amine-coupled to a CM-5 chip; free ligand read 10 s after end of injection; PBS 0.05% Tween 20, 25 °C. Conditions: both partners purified.

For the next test, the target named is T2, recombinant human IGF-2 (human).
T2 construct: human insulin-like growth factor 2, recombinant; also called rhIGF-2; hIGF-2; source: bought: Sigma-Aldrich
The description is as above. Conditions: both partners purified.

T1 sequence (P05019 49-118): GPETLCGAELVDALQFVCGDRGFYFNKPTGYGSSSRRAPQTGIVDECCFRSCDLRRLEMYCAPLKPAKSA

B1: dusigitumab (MEDI-573) (antibody, V domains shown)
VH: QVQLVQSGAEVKKPGASVKVSCKASGYTFTSYDINWVRQATGQGLEWMGWMNPNSGNTGYAQKFQGRVTMTRNTSISTAYMELSSLRSEDTAVYYCARDPYYYYYGMDVWGQGTTVTVSS
VL: QSVLTQPPSVSAAPGQKVTISCSGSSSNIENNHVSWYQQLPGTAPKLLIYDNNKRPSGIPDRFSGSKSGTSATLGITGLQTGDEADYYCETWDTSLSAGRVFGGGTKLTVL
Turning to B1, the binding result in the test with recombinant human IGF-1 and with recombinant human IGF-2 was “binds” throughout.
